{"source": "paper PMC8808179", "about": "(The Journal of Biological Chemistry, 2021)", "binders": {"B1": {"name": "HC1 (heavy-chain variant of Ab731 with the parental light chain), membrane-tethered on the cell surface (antibody, V domains shown)", "VH": "EVQLLESGGGLVQPGGSLRLSCAASGFTFSSYAMSWVRQAPGKGLEWVSAFSGWDVSTYYADSVKGRFTISRDNSKNTLYLQMNSLRAEDTAVYYCVQDGLGPYFYNYGMDVWGQGTTVTVSS", "VL": "SYELTQPPSVSVSPGQTASITCSGDKLGDKYTCWFQQKPGQSPVLVIYHDSKRPSGIPERFSGSNSGDTATLTISGTQAMDEADYYCQAWDSSTYVFGTGTKVTVL"}, "B2": {"name": "HC2 (heavy-chain variant of Ab731 with the parental light chain), membrane-tethered on the cell surface (antibody, V domains shown)", "VH": "B1 VH with M34G, W54S, D55G, V56G", "VL": "B1 VL"}, "B3": {"name": "antibody 731 (antibody, V domains shown)", "VH": "B1 VH with W54S, D55G, V56G", "VL": "B1 VL"}, "B4": {"name": "MMAb2 (LC2/HC2) (antibody, V domains shown)", "VH": "B1 VH with M34G, W54S, D55G, V56G", "VL": "B1 VL with T32A, C33F"}, "B5": {"name": "MMAb3 (LC1/HC1) (antibody, V domains shown)", "VH": "B1 VH", "VL": "B1 VL with T32S, C33F"}, "B6": {"name": "MMAb1 (LC1/HC2) (antibody, V domains shown)", "VH": "B1 VH with M34G, W54S, D55G, V56G", "VL": "B1 VL with T32S, C33F"}}, "note": "Changes are numbered by the printed parent chain.", "data": [{"molecular_target": "T1, cynomolgus monkey (nonhuman primate) IL-13 (Macaca fascicularis)", "T1 chain": "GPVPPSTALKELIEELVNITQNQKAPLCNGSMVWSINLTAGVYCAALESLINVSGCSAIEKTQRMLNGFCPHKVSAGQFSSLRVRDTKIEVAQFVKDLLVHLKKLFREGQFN", "assay": "flow cytometry on cells", "values": [{"binder": "B1", "binding result": "binds"}, {"binder": "B2", "binding result": "binds"}]}, {"molecular_target": "T1, cynomolgus monkey (nonhuman primate) …", "assay": "KinExA", "units": {"Kd": "pM"}, "values": [{"binder": "B3", "Kd": 3550}, {"binder": "B4", "Kd": 12.4}, {"binder": "B5", "Kd": 5.1}, {"binder": "B6", "Kd": 18.7}]}, {"molecular_target": "human interleukin (IL)-13 (Homo sapiens, UniProt P35225)", "sequence (P35225 25-146)": "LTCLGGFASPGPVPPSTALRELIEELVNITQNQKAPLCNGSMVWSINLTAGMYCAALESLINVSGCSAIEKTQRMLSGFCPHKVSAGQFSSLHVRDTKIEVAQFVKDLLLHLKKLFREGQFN", "assay": "KinExA", "units": {"Kd": "pM"}, "values": [{"binder": "B3", "Kd": 1.9}, {"binder": "B4", "Kd": 0.142}, {"binder": "B5", "Kd": 0.034}, {"binder": "B6", "Kd": 0.295}]}]}
